1 molecule from paper PMC10065947 (Nature chemical biology, 2022) can be followed below.

For the assay, the target named is TAMRA-APP12 (peptide S1) (TAMRA label (position not given); C-terminal amide). Put plainly: fluorescence polarisation.

B1: naïve fusion of WT Fyn-SH3 and WT COMT (enzyme)
chain: not shown
On to B1, for which the Kd came out at 330 nM.
